Target: the molecule itself
Assay: […]

B1: Ebola virus transmembrane glycoprotein GP (natural protein)
chain: IPLGVIHNSTLQVSDVDKLVCRDKLSSTNQLRSVGLNLEGNGVATDVPSATKRWGFRSGVPPKVVNYEAGEWAENCYNLEIKKPDGSECLPAAPDGIRGFPRCRYVHKVSGTGPCAGDFAFHKEGAFFLYDRLASTVIYRGTTFAEGVVAFLILPQAKKDFFSSHPLREPVNATEDPSSGYYSTTIRYQATGFGTNETEYLFEVDNLTYVQLESRFTPQFLLQLNETIYTSGKRSNTTGKLIWKVNPEIDTTIGEWAFWETKKNLTRKIRSEELSFTVVSNGAKNISGQSPARTSSDPGTNTTTEDHKIMASENSSAMVQVHSQGREAAVSHLTTLATISTSPQSLTTKPGPDNSTHNTPVYKLDISEATQVEQHHRRTDNDSTASDTPSATTAAGPPKAENTNTSKSTDFLDPATTTSPQNHSETAGNNNTHHQDTGEESASSGKLGLITNTIAGVAGLITGGRRTRREAIVNAQPKCNPNLHYWTTQDEGAAIGLAWIPYFGPAAEGIYIEGLMHNQDGLICGLRQLANETTQALQLFLRATTELRTFSILNRKAIDFLLQRWGGTCHILGPDCCIEPHDWTKNITDKIDQIIHDFVDKTLPDQGDNDNWWTGWRQWIPAGIGVTGVIIAVIALFCICKFVF
  stoichiometry N: 3

Source: doi:10.1101/2021.04.21.440744 (bioRxiv, 2021)
